From publication doi:10.1101/2025.02.27.640495 come the findings set out here.

This series concerns the target Cro-6His (Cro-like repressor of phage phi10403S) (Listeria monocytogenes 10403S prophage …, UniProt A0A0H3GJS2 1-67). Kind of series: EMSA. (In EMSA bound probe runs differently from free probe, usually more slowly.)

B1: Cro operator probe, native (dsDNA)
DNA 1: TTATAGAGAAACAAAACGTTTCTTTTGG
DNA 2: CCAAAAGAAACGTTTTGTTTCTCTATAA
Consider B1, for which the Kd (in general, the constant that tells how readily two partners part at equilibrium) amounted to 321 nM. This counts as sub-micromolar.
